The experiment addresses HLA-B*08:01 (Homo sapiens, UniProt P01889). The experiment can be described thus: MHC binding assay (UV-ligand exchange, beta2m ELISA). The conditions noted are these: MHC class I binding score; binding to HLA-B*08:01 ranged by peptide exchange yield (UV-ligand exchange, β2m ELISA). The source says: Candidate peptides for T cell based therapies according to the present invention were further tested for their MHC binding capacity (affinity). The individual peptide-MHC complexes were produced by UV-ligand exchange, where a UV-sensitive peptide is cleaved upon UV-irradiation and exchanged with the peptide of interest as analyzed. Only peptide candidates that can effectively bind and stabilize the peptide-receptive MHC molecules prevent dissociation of the MHC complexes. To determine the yield of the exchange reaction, an ELISA was performed based on the detection of the light chain (β2m) of stabilized MHC complexes. The assay was performed as generally described in Rodenko et al. (Rodenko et al., 2006).
96 well MAXISorp plates (NUNC) were coated over night with 2 ug/ml streptavidin in PBS at room temperature, washed 4× and blocked for 1 h at 37° C. in 2% BSA containing blocking buffer. Refolded HLA-A*02:01/MLA-001 monomers served as standards, covering the range of 15-500 ng/ml. Peptide-MHC monomers of the UV-exchange reaction were diluted 100-fold in blocking buffer. Samples were incubated for 1 h at 37° C., washed four times, incubated with 2 ug/ml HRP conjugated anti-β2m for 1 h at 37° C., washed again and detected with TMB solution that is stopped with […]. Absorption was measured at 450 nm. Candidate peptides that show a high exchange yield (preferably higher than 50%, most preferred higher than 75%) are generally preferred for a generation and production of antibodies or fragments thereof, and/or T cell receptors or fragments thereof, as they show sufficient avidity to the MHC molecules and prevent dissociation of the MHC complexes.
(An ELISA detects its analyte on a solid surface through an enzyme-linked reagent.)
For the substance “156 (ILKEQSSSSF; listed as Homo sapiens) [compound 156]”, the Peptide exchange result is recorded as “++ (20% = ++)”.
In the case of “244 (HALPPYITVL; listed as Homo sapiens) [compound 244]”, the Peptide exchange entry is reported as “++ (20% = ++)”.
As for “140 (IAVDKPITL; listed as Homo sapiens) [compound 140]”, the Peptide exchange result is recorded as “++ (20% = ++)”.
Consider “176 (YVIQRQSVL; listed as Homo sapiens) [compound 176]”, for which the Peptide exchange result is “++ (20% = ++)”.
With “188 (EIMEKTTL; listed as Homo sapiens) [compound 188]”, the Peptide exchange entry is “++ (20% = ++)”.
As for “181 (SIRSSYSRF; listed as Homo sapiens) [compound 181]”, the Peptide exchange entry was “++ (20% = ++)”.
“237 (LPLDSRYVTL; listed as Homo sapiens) [compound 237]”: the Peptide exchange entry is “+++ (50% = +++)”.
“192 (EEKHFTTL; listed as Homo sapiens) [compound 192]”: the Peptide exchange entry is given as “++ (20% = ++)”.
Then “248 (SEVNKHETAL; listed as Homo sapiens) [compound 248]”, with “++ (20% = ++)”.
“138 (TQHLTVATL; listed as Homo sapiens) [compound 138]”: the Peptide exchange result is “+++ (50% = +++)”.
“17 (LLILKTVL; listed as Homo sapiens) [compound 17]”: the Peptide exchange result is listed as “+++ (50% = +++)”.
In the case of “136 (KMFYRKDVM; listed as Homo sapiens) [compound 136]”, the Peptide exchange result is listed as “+++ (50% = +++)”.
For “56 (ILCGSRKMPL; listed as Homo sapiens) [compound 56]”, the Peptide exchange result is “++ (20% = ++)”.
For “112 (NALDPLSAL; listed as Homo sapiens) [compound 112]”, the Peptide exchange result is recorded as “++ (20% = ++)”.
Then “122 (ESSAQPTAL; listed as Homo sapiens) [compound 122]”, with “++ (20% = ++)”; and “73 (MFPARGVPL; listed as Homo sapiens) [compound 73]”, with “++ (20% = ++)”; and “6 (NRQKRFVL; listed as Homo sapiens) [compound 6]”, with “++ (20% = ++)”.
In the case of “101 (FAFEKLIQF; listed as Homo sapiens) [compound 101]”, the Peptide exchange entry is reported as “+++ (50% = +++)”.
Regarding “141 (AQLKLVAL; listed as Homo sapiens) [compound 141]”, the Peptide exchange result is given as “++ (20% = ++)”.
For the substance “115 (MRILKRFLAC; listed as Homo sapiens) [compound 115]”, the Peptide exchange entry is “++ (20% = ++)”.
With “205 (YMQYGFLSM; listed as Homo sapiens) [compound 205]”, the Peptide exchange entry is listed as “++ (20% = ++)”.
“211 (DVISKGVSL; listed as Homo sapiens) [compound 211]”: the Peptide exchange entry is on record as “++ (20% = ++)”.
In the case of “214 (DAPRHRLL; listed as Homo sapiens) [compound 214]”, the Peptide exchange entry is “++ (20% = ++)”.
With “251 (DAAAFFKSV; listed as Homo sapiens) [compound 251]” the entry was “++ (20% = ++)”.
For “200 (VAAARAVPV; listed as Homo sapiens) [compound 200]”, the Peptide exchange result is “++ (20% = ++)”.
“151 (DRHLTNRVL; listed as Homo sapiens) [compound 151]”: the Peptide exchange result is on record as “++ (20% = ++)”.
For the substance “126 (TAAEARLSL; listed as Homo sapiens) [compound 126]”, the Peptide exchange result is given as “++ (20% = ++)”.
As to “53 (DLRKLKRQL; listed as Homo sapiens) [compound 53]”, the Peptide exchange entry is on record as “++ (20% = ++)”.
Regarding “30 (DLQKKAQAL; listed as Homo sapiens) [compound 30]”, the Peptide exchange entry is on record as “++ (20% = ++)”.
Regarding “226 (DIYEVAVSL; listed as Homo sapiens) [compound 226]”, the Peptide exchange entry is “+++ (50% = +++)”.
